# According to the Immune Epitope Database (IEDB):
# Key:
# [1] = biological target: HLA-A*02:19; test: IEDB peptide-MHC binding, purified MHC/direct/fluorescence; filed as Kd, often an IC50 or EC50 that approximates it; ≥ and ≤ were set here for values at or beyond the usual limits of such assays; conditions: source organism: Influenza A virus (A/ferret/Maryland/P10-UMD/2008(H9N2))
# [2] = biological target: HLA-A*68:02; test: as above
# [3] = biological target: HLA-A*02:16; test: as above; conditions: source organism: Influenza A virus (A/ferret/Maryland/P10-UMD/2008(H9N2))
# [4] = biological target: HLA-A*02:03; test: as above; conditions: source organism: Influenza A virus (A/ferret/Maryland/P10-UMD/2008(H9N2))
# [5] = biological target: HLA-A*02:12; test: as above
# [6] = biological target: HLA-A*02:11; test: as above; conditions: source organism: Influenza A virus (A/ferret/Maryland/P10-UMD/2008(H9N2))
# [7] = biological target: HLA-A*03:01; test: as above
# [8] = biological target: HLA-A*23:01; test: as above; conditions: source organism: Influenza A virus (A/ferret/Maryland/P10-UMD/2008(H9N2))
# [9] = biological target: HLA-A*24:03; test: as above
# [10] = biological target: HLA-B*39:01; test: IEDB peptide-MHC binding, purified MHC/competitive/fluorescence; filed as Kd, often an IC50 or EC50 that approximates it; ≥ and ≤ were set here for values at or beyond the usual limits of such assays; conditions: source organism: Influenza A virus (A/Victoria/1968(H3N2))
# [11] = biological target: HLA-B*57:01; test: as above; conditions: source organism: Influenza A virus (A/Victoria/1968(H3N2))
# [12] = biological target: HLA-B*27:03; test: as above
# [13] = biological target: HLA-B*15:01; test: as above; conditions: source organism: Influenza A virus (A/Victoria/1968(H3N2))
# [14] = biological target: HLA-A*69:01; test: as above; conditions: source organism: Influenza A virus (A/Victoria/1968(H3N2))
# [15] = biological target: HLA-B*46:01; test: as above; conditions: source organism: Influenza A virus (A/Victoria/1968(H3N2))
# [16] = biological target: HLA-B*51:01; test: as above
# [17] = biological target: HLA-A*02:01; test: as above; conditions: source organism: Influenza A virus (A/Victoria/1968(H3N2))
# [18] = biological target: HLA-A*26:01; test: as above
# [19] = biological target: HLA-C*06:02; test: IEDB peptide-MHC binding, purified MHC/direct/fluorescence; filed as Kd, often an IC50 or EC50 that approximates it; ≥ and ≤ were set here for values at or beyond the usual limits of such assays; conditions: source organism: human gammaherpesvirus 4
# [20] = biological target: HLA-B*18:01; test: as above; conditions: source organism: Orthohantavirus andesense
# [21] = biological target: HLA-B*39:01; test: as above; conditions: source organism: Orthohantavirus andesense
# [22] = biological target: HLA-A*01:01; test: as above; conditions: source organism: Orthohantavirus andesense
# [23] = biological target: HLA-A*29:02; test: as above; conditions: source organism: Orthohantavirus andesense
# [24] = biological target: HLA-B*57:01; test: as above; conditions: source organism: Orthohantavirus andesense
# [25] = biological target: HLA-B*58:01; test: as above; conditions: source organism: Orthohantavirus andesense
# [26] = biological target: HLA-B*15:01; test: as above; conditions: source organism: Orthohantavirus andesense
# [27] = biological target: HLA-B*27:05; test: as above; conditions: source organism: Orthohantavirus andesense
# [28] = biological target: HLA-B*44:02; test: as above; conditions: source organism: Orthohantavirus andesense
# [29] = biological target: HLA-A*69:01; test: as above; conditions: source organism: Orthohantavirus andesense
# [30] = biological target: HLA-B*46:01; test: as above; conditions: source organism: Orthohantavirus andesense
# [31] = biological target: HLA-B*48:01; test: as above; conditions: source organism: Orthohantavirus andesense
# [32] = biological target: HLA-A*31:01; test: as above; conditions: source organism: Orthohantavirus andesense
# [33] = biological target: HLA-A*02:01; test: as above; conditions: source organism: Orthohantavirus andesense
# [34] = biological target: HLA-B*07:02; test: as above; conditions: source organism: Orthohantavirus andesense
# [35] = biological target: HLA-B*15:17; test: IEDB peptide-MHC binding, purified MHC/competitive/fluorescence; filed as Kd, often an IC50 or EC50 that approximates it; ≥ and ≤ were set here for values at or beyond the usual limits of such assays; conditions: source organism: Orthohantavirus andesense
# [36] = source organism: Influenza A virus (A/ferret/Maryland/P10-UMD/2008(H9N2))
# [37] = source organism: Influenza A virus (A/Victoria/1968(H3N2))
# [38] = source organism: Orthohantavirus andesense
sequence,measurement,setting,value
NMDKAVKLY,Kd,[1],≥ 20 µM
same,Kd,[2]; [36],≥ 20 µM
same,Kd,[3],≥ 20 µM
same,Kd,[4],≥ 20 µM
same,Kd,[5]; [36],≥ 20 µM
same,Kd,[6],≥ 20 µM
same,Kd,[7]; [36],≥ 20 µM
same,Kd,[8],≥ 20 µM
same,Kd,[9]; [36],≥ 20 µM
same,Kd,[10],≥ 20 µM
same,Kd,[11],≥ 20 µM
same,Kd,[12]; [37],≥ 20 µM
same,Kd,[13],≥ 20 µM
same,Kd,[14],≥ 20 µM
same,Kd,[15],≥ 20 µM
same,Kd,[16]; [37],≥ 20 µM
same,Kd,[17],≥ 20 µM
same,Kd,[18]; [37],≥ 20 µM
YRTATLRTL,Kd,[19],9 nM
TRDHVNLVL,Kd,[20],≥ 20 µM
same,Kd,[21],45.7 nM
same,Kd,[22],≥ 20 µM
same,Kd,[23],≥ 20 µM
same,Kd,[24],≥ 20 µM
same,Kd,[25],≥ 20 µM
same,Kd,[2]; source organism: Maporal virus,≥ 20 µM
same,Kd,[26],≥ 20 µM
same,Kd,[27],≥ 20 µM
same,Kd,[5]; source organism: Maporal virus,≥ 20 µM
same,Kd,[28],≥ 20 µM
same,Kd,[29],≥ 20 µM
same,Kd,[30],≥ 20 µM
same,Kd,[7]; [38],≥ 20 µM
same,Kd,[31],≥ 20 µM
same,Kd,[32],≥ 20 µM
same,Kd,[33],≥ 20 µM
same,Kd,[9]; source organism: Maporal virus,≥ 20 µM
same,Kd,[34],≥ 20 µM
same,Kd,[35],≥ 20 µM
same,Kd,[12]; [38],≥ 20 µM
same,Kd,[16]; [38],≥ 20 µM
same,Kd,[18]; [38],≥ 20 µM
